# ± gives the standard deviation.
# Assay: protein stability index of a GFP-peptide fusion (GPS, HEK-293T) (PSI 1-6); higher = more stable
# Details: c terminus: a fixed tail appended
# 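Note: 24-mer peptide tiles fused after GFP, lentivirally expressed, FACS-sorted into six equal bins by GFP/DsRed ratio, decoded by Illumina sequencing, PSI is the read-weighted mean bin number.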
sequence,measurement,setting,value
YCFMIAYGTQRTLILESQNWRYAT [FUT8],protein stability index,treatment: DMSO,3.46 ± 0.51
same,protein stability index,"treatment: MLN4924 1 uM, 8 h",3.28 ± 0.27
MIEDNKENKDHSLERGRASLIFSL [TPH1],protein stability index,treatment: DMSO,3.25 ± 0.36
same,protein stability index,"treatment: MLN4924 1 uM, 8 h",3.36 ± 0.18
VFQEMLLHKFPYRMVPALPPKRML [SNX8],protein stability index,treatment: DMSO,2.12 ± 0.54
same,protein stability index,"treatment: MLN4924 1 uM, 8 h",2.13 ± 0.22
APDRLRASASCSHWRECLFYPALW [FBXO33],protein stability index,treatment: DMSO,2.33 ± 0.43
same,protein stability index,"treatment: MLN4924 1 uM, 8 h",2.28 ± 0.26
GGPGGRGPWSCENFNPLLVAGGVA [CEND1],protein stability index,treatment: DMSO,2.82 ± 0.23
same,protein stability index,"treatment: MLN4924 1 uM, 8 h",2.72 ± 0.18
QEQIEAVLLNSLQQYRQDQRDGSK [CCND2],protein stability index,treatment: DMSO,4.51 ± 0.086
same,protein stability index,"treatment: MLN4924 1 uM, 8 h",4.46 ± 0.13
PVDAEALELHDYHDIIKHPMDLST [BRD3],protein stability index,treatment: DMSO,4.63 ± 0.34
same,protein stability index,"treatment: MLN4924 1 uM, 8 h",4.67 ± 0.32
RTYRYSNRYCGGPGPPITDCEMNS [DYRK1B],protein stability index,treatment: DMSO,2.67 ± 0.23
same,protein stability index,"treatment: MLN4924 1 uM, 8 h",2.56 ± 0.11
PPMGKAFQELAGKELCAMSEEQFR [SPDEF],protein stability index,treatment: DMSO,4.3 ± 0.25
same,protein stability index,"treatment: MLN4924 1 uM, 8 h",4.4 ± 0.34
KFCMNGAALCALGKDCFLELAPDF [ETS1],protein stability index,treatment: DMSO,2.18 ± 0.33
same,protein stability index,"treatment: MLN4924 1 uM, 8 h",2.01 ± 0.16
GRQPALRPHVHKQTEKTTRVRTVL [ISL2],protein stability index,treatment: DMSO,3.66 ± 0.1
same,protein stability index,"treatment: MLN4924 1 uM, 8 h",3.88 ± 0.17
SQGNFEGNFESLDLAEFAKKQPWW [FUNDC2],protein stability index,treatment: DMSO,3.63 ± 0.27
same,protein stability index,"treatment: MLN4924 1 uM, 8 h",3.63 ± 0.46
LKYMEVTLRPTDSQSHCYRTCFSP [PCDHGC5],protein stability index,treatment: DMSO,2.31 ± 0.2
same,protein stability index,"treatment: MLN4924 1 uM, 8 h",2.25 ± 0.34
QQCQYRWLRVLNPDLVKGPWTKEE [MYBL2],protein stability index,treatment: DMSO,2.83 ± 0.38
same,protein stability index,"treatment: MLN4924 1 uM, 8 h",2.9 ± 0.29
KCLSMFPHYICTLKQPHLLLEKYS [PNLIPRP1],protein stability index,treatment: DMSO,2.67 ± 0.69
same,protein stability index,"treatment: MLN4924 1 uM, 8 h",2.51 ± 0.59
QNQVDELERKFRCQQEQLFQTRQE [LRRC45],protein stability index,treatment: DMSO,5.04 ± 0.22
same,protein stability index,"treatment: MLN4924 1 uM, 8 h",5.02 ± 0.12
WVKQQAEREAEKEQKRLERLQRKL [SDE2],protein stability index,treatment: DMSO,4.18 ± 0.36
same,protein stability index,"treatment: MLN4924 1 uM, 8 h",4.1 ± 0.33
MASDHREALLDRESENASLREKLR [LRRC45],protein stability index,treatment: DMSO,5.15 ± 0.093
same,protein stability index,"treatment: MLN4924 1 uM, 8 h",4.95 ± 0.16
PVLAVVFIICIVIAILLYKSKPDR [PTPRD],protein stability index,treatment: DMSO,2.94 ± 1.7
same,protein stability index,"treatment: MLN4924 1 uM, 8 h",2.87 ± 0.63
PQVRDWSHYFKIIEDLRAQIFANT [KRT18],protein stability index,treatment: DMSO,2.52 ± 0.36
same,protein stability index,"treatment: MLN4924 1 uM, 8 h",2.64 ± 0.46
VYNANINLFCVLRLVVEFPATGGA [PKD2L1],protein stability index,treatment: DMSO,3.05 ± 0.41
same,protein stability index,"treatment: MLN4924 1 uM, 8 h",3.13 ± 0.71
EMERTQAQLRDAVQSLQLSPRTRG [RASAL3],protein stability index,treatment: DMSO,4.96 ± 0.36
same,protein stability index,"treatment: MLN4924 1 uM, 8 h",4.77 ± 0.49
HELLLGSLQQQHQADLELIESAHR [FBF1],protein stability index,treatment: DMSO,4.66 ± 0.24
same,protein stability index,"treatment: MLN4924 1 uM, 8 h",4.35 ± 0.21
KEISDDEAEEEKGEKEEEDKDDEE [HSP90AB1],protein stability index,treatment: DMSO,5.66 ± 0.34
same,protein stability index,"treatment: MLN4924 1 uM, 8 h",5.68 ± 0.19
PENVEDSGLDSPSHAAPGPSPDSW [FCHO1],protein stability index,treatment: DMSO,5.37 ± 0.13
same,protein stability index,"treatment: MLN4924 1 uM, 8 h",5.46 ± 0.2
KNATRETTSTLKAWLNEHRKNPYP [IRX6],protein stability index,treatment: DMSO,3.14 ± 0.23
same,protein stability index,"treatment: MLN4924 1 uM, 8 h",3.37 ± 0.33
QESSFRSRKIAVEDENDLEELNNG [MIA2],protein stability index,treatment: DMSO,5.32 ± 0.92
same,protein stability index,"treatment: MLN4924 1 uM, 8 h",5.48 ± 0.15
QRFGEALQDQEKAWGFPENATAPR [ELOA2],protein stability index,treatment: DMSO,4.78 ± 0.23
same,protein stability index,"treatment: MLN4924 1 uM, 8 h",4.68 ± 0.46
ACGVAMELYVFGGVRSREDAQGSE [GAN],protein stability index,treatment: DMSO,2.22 ± 0.25
same,protein stability index,"treatment: MLN4924 1 uM, 8 h",2.35 ± 0.096
QPQDVDLALDSGASLLHLAVEAGQ [RIPK4],protein stability index,treatment: DMSO,4.44 ± 0.51
same,protein stability index,"treatment: MLN4924 1 uM, 8 h",4.58 ± 0.71
ESNVSMASLGEKRDHHSTHYRASE [CHGB],protein stability index,treatment: DMSO,4.71 ± 0.27
same,protein stability index,"treatment: MLN4924 1 uM, 8 h",4.79 ± 0.33
CMCTVGERLYVIGGNHFRGTSDYD [KLHL13],protein stability index,treatment: DMSO,1.95 ± 0.17
same,protein stability index,"treatment: MLN4924 1 uM, 8 h",2.38 ± 0.23
GSRCLKTFEVPEENTAETITRVLY [ZBED1],protein stability index,treatment: DMSO,2.66 ± 0.47
same,protein stability index,"treatment: MLN4924 1 uM, 8 h",2.64 ± 0.18
FLEEDNYKNIKRPPGDIMFLLVQR [USP39],protein stability index,treatment: DMSO,2.23 ± 0.37
same,protein stability index,"treatment: MLN4924 1 uM, 8 h",2.11 ± 0.27
NDEIEEVRLQSIHTMRKISNNITL [INTS4],protein stability index,treatment: DMSO,3.75 ± 0.23
same,protein stability index,"treatment: MLN4924 1 uM, 8 h",3.69 ± 0.18
NGMNAVMMHGRSYSLASGAGGGGS [RAB40C],protein stability index,treatment: DMSO,3.19 ± 0.26
same,protein stability index,"treatment: MLN4924 1 uM, 8 h",3.34 ± 0.34
SEDWTMEERFRPLTFHGLILRSQL [CLCN6],protein stability index,treatment: DMSO,2.32 ± 0.13
same,protein stability index,"treatment: MLN4924 1 uM, 8 h",2.23 ± 0.18
TYGWTANMERIMKAQALRDNSTMG [HSP90AB1],protein stability index,treatment: DMSO,2.87 ± 0.24
same,protein stability index,"treatment: MLN4924 1 uM, 8 h",3.31 ± 0.3
LQTMLRQSAFLHLPLPEQIHKASA [INTS4],protein stability index,treatment: DMSO,2.56 ± 0.22
same,protein stability index,"treatment: MLN4924 1 uM, 8 h",2.44 ± 0.15

# Source: the supplement of paper PMC10567573
